{
  "source": "paper PMC3246455",
  "about": "“Degradation of Pheromone and Plant Volatile Components by a Same Odorant-Degrading Enzyme in the Cotton Leafworm, Spodoptera littoralis” (PLoS ONE, 2011)",
  "type_in_all_cases": "biochemical, Spodoptera littoralis",
  "key": {"[1]": {"substrate": "CC/C=C\\CCOC(C)=O", "assay": "GC of the released alcohol, as in an earlier paper", "details": "incubation and analyses as in ref 12; one-site fit"}, "[2]": {"substrate": "C/C=C/C/C=C\\CCCCCCCCOC(C)=O", "assay": "GC of the released alcohol, nonlinear fit", "details": "5 min incubation, one-site fit, buffer and temperature not restated for kinetics (1 h assay: 20 mM Tris pH 7.4, 28°C)"}, "[3]": {"substrate": "CC/C=C/C=C\\CCCCCCCCOC(C)=O", "assay": "GC of the released alcohol, nonlinear fit", "details": "5 min incubation, one-site fit, buffer and temperature not restated for kinetics (1 h assay: 20 mM Tris pH 7.4, 28°C)"}},
  "data": [
    {"protein": "SlCXE7 (Spodoptera littoralis) (protein, complete ORF amplified from male antennal cDNA, C-terminal V5/6His tag (tag kept), secreted from baculovirus-infected Sf21 cells, Ni-NTA purified from supernatant) DDEWREVKTAQGPVRGRKHPTEDIYTFYNIPYATAPVGVDRFKAPLPPPVWLQPYDAVEKPVVCPQPVFPFPELQLNKLVKQENCLIANVFVPNTNKKNLSVVVYVHGGAFIMGWGDMFRATQLMNKKDIIVVTFNYRLGVHGFLCLGTEDAPGNAGMKDQVALLRWVQKNIGSFNGNPDDVTIIGFSAGSASVDLLMLSKSAEGLFHRVVPESGGNLAAFAIQRDPVEIAKTYARQLNFTNVDDIYALGEFYKTAPLELLTSDPFFDRTDSTFLFSPCVERNMGQETFLTESPLTILKNGNYKKLPVLYGFAEMEGLLRVDFFPFWKQKMSDKFSDFLPADLTFKYEEEREEVANKVKRFYFGDEPVSEDNILQYVNFFSDVLFMHPMLWATKLHVEAGNNQIYLYELSFVAEEVPEVPHTNIKGVTQCGQSLAVLDGKNLTHKSHSEESLATPEYQKMKKTMREIWYNFIKKGKPVPEGSTRPAWPFAGADRSPHMSLGQKIEPRGVLLEKRTVLWDDINQRYFREPVPPPTPPPKSHAEK", "values": [
      {"measurement": "Km", "setting": "[1]", "value": "1600 ± 700", "unit": "µM"},
      {"measurement": "kcat", "setting": "[1]", "value": 36, "unit": "s⁻¹"},
      {"measurement": "Km", "setting": "[2]", "value": "42.6 ± 13.3", "unit": "µM"},
      {"measurement": "kcat", "setting": "[2]", "value": "~0.4", "unit": "s⁻¹"},
      {"measurement": "Km", "setting": "[3]", "value": "56.6 ± 18.5", "unit": "µM"},
      {"measurement": "kcat", "setting": "[3]", "value": "~0.4", "unit": "s⁻¹"}
    ]}
  ]
}
